# Test results reported in the supplement of paper PMC9233669.
# This sample holds only a part of the variants without activity.
# Tests used:
# [1] = tested on: biotinyl-Leu-oxazolone; assay: self-aminoacylation, catalytic enhancement (BLO) (fold over background); higher = more active; k-Seq, kA / k0A0; sequences stand for … in GGGAAUGGAUCCACAUCUACGAAUUC…UUCACUGCAGACUUGACGAAGCUG
# How it was run: (§1)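 Mutagenized RNA pools with a 21-nt variable region (0.43 μM) reacted with each biotinyl-aminoacyl-oxazolone at 2–1250 μM. Reactions ran in 50 μL HEPES/NaCl/KCl/MgCl2/CaCl2 buffer with 5% acetonitrile, pH 6.9–7.0, for 90 minutes at room temperature. Streptavidin-captured RNA was quantified by triplicate qPCR and Illumina sequencing, and per-sequence fraction reacted was fit to a pseudo-first-order model with 1000 bootstraps. Catalytic enhancement is median kA divided by the uncatalyzed rate, the low-activity peak of a bimodal Gaussian fit.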
# [2] = tested on: biotinyl-Val-oxazolone; assay: self-aminoacylation, catalytic enhancement (BVO) (fold over background); higher = more active; k-Seq, kA / k0A0; sequences stand for … in GGGAAUGGAUCCACAUCUACGAAUUC…UUCACUGCAGACUUGACGAAGCUG
# How it was run: as §1
# [3] = tested on: biotinyl-Ile-oxazolone; assay: self-aminoacylation, catalytic enhancement (BIO) (fold over background); higher = more active; k-Seq, kA / k0A0; sequences stand for … in GGGAAUGGAUCCACAUCUACGAAUUC…UUCACUGCAGACUUGACGAAGCUG
# How it was run: as §1
# [4] = tested on: biotinyl-Met-oxazolone; assay: self-aminoacylation, catalytic enhancement (BMO) (fold over background); higher = more active; k-Seq, kA / k0A0; sequences stand for … in GGGAAUGGAUCCACAUCUACGAAUUC…UUCACUGCAGACUUGACGAAGCUG
# How it was run: as §1
# [5] = tested on: biotinyl-Phe-oxazolone; assay: self-aminoacylation, catalytic enhancement (BFO) (fold over background); higher = more active; k-Seq, kA / k0A0; sequences stand for … in GGGAAUGGAUCCACAUCUACGAAUUC…UUCACUGCAGACUUGACGAAGCUG
# How it was run: as §1
# [6] = tested on: biotinyl-Trp-oxazolone; assay: self-aminoacylation, catalytic enhancement (BWO) (fold over background); higher = more active; k-Seq, kA / k0A0; sequences stand for … in GGGAAUGGAUCCACAUCUACGAAUUC…UUCACUGCAGACUUGACGAAGCUG
# How it was run: as §1
Sequence,self-aminoacylation [1],self-aminoacylation [2],self-aminoacylation [3],self-aminoacylation [4],self-aminoacylation [5],self-aminoacylation [6]
AUUAACCUAGGUCAUUGGGUG [Fam2.2 aminoacylation ribozyme variant],3.23,2.28,1.93,2.88,15.2,2.85
AUUAACCUAUGUCAUCGGGUG [Fam2.2 aminoacylation ribozyme variant],6.82,3.13,3.43,5.3,36,5.05
AUUAACCUCGGUCAUCGGGUG [Fam2.2 aminoacylation ribozyme variant],5.54,3.76,3.13,5.08,28.5,3.74
AUUAACCUGGUCAACGAGUGA [Fam2.1 aminoacylation ribozyme variant],5.45,2.85,2.78,5.37,22.5,6.7
AUUAACCUGGUCAUCCAGUGA [Fam2.1 aminoacylation ribozyme variant],4.45,2.56,2.38,4.16,18.6,5.64
AUUAACCUGGUCAUCGAGUGA [Fam2.1 aminoacylation ribozyme variant],7.64,4.02,3.97,7.3,8.46,8.57
AUUAACCUGGUCAUCGAGUGC [Fam2.1 aminoacylation ribozyme variant],1.18,1.1,0.994,1.25,0.898,0.854
AUUAACCUGGUCAUCUAGUGA [Fam2.1 aminoacylation ribozyme variant],9.7,4.53,4.57,9.41,52.4,11.1
AUUAACCUGGUCAUGGAGUGA [Fam2.1 aminoacylation ribozyme variant],3.54,2.02,2.45,4.08,9.66,4.5
AUUAACCUUGUCAUCGAGUGA [Fam2.1 aminoacylation ribozyme variant],6.72,3.39,3.25,6.16,17.6,7.59
AUUAACUUAGGUCAUCGGGUG [Fam2.2 aminoacylation ribozyme variant],4.73,2.59,2.79,4.59,28.7,4.85
AUUAAGCUAGGUCAUCGGGUG [Fam2.2 aminoacylation ribozyme variant],5.1,3.77,3.11,3.88,34.3,4.85
AUUACACUGGUCAUCGAGUGA [Fam2.1 aminoacylation ribozyme variant],5.86,3.09,3.17,5.44,19.7,6.94
AUUACACUGGUCAUCGCGUGA [Fam2.1 aminoacylation ribozyme variant],14.4,7.07,6.84,12.6,102,14.6
AUUACACUGGUCAUCGUGUGA [Fam2.1 aminoacylation ribozyme variant],2.8,1.56,1.75,3.15,13.8,3
AUUACACUGGUCCUCGAGUGA [Fam2.1 aminoacylation ribozyme variant],4.8,2.32,2.72,5.17,23.4,5.79
AUUACACUUGUCAUCGAGUGA [Fam2.1 aminoacylation ribozyme variant],4.35,2.59,2.51,4.21,11.4,5.31
AUUACCAAGGUCAUCGAGUGA [Fam2.1 aminoacylation ribozyme variant],8.44,3.96,3.64,7.64,43.2,9.76
AUUACCACGGUCAUCGAGUGA [Fam2.1 aminoacylation ribozyme variant],5.96,3.66,3.48,6.51,38.3,8.11
AUUACCAUCGUCAUCGAGUGA [Fam2.1 aminoacylation ribozyme variant],3.6,2.32,2.21,3.19,5.68,3.53
AUUACCAUGGUCAUCGAGUGA [Fam2.1 aminoacylation ribozyme variant],9.28,4.75,4.49,8.61,12,10.7
AUUACCAUGGUCUUCGAGUGA [Fam2.1 aminoacylation ribozyme variant],6.61,3.35,3.56,5.47,28,7.3
AUUACCAUGGUGAUCGAGUGA [Fam2.1 aminoacylation ribozyme variant],4.04,2.4,2.33,3.59,14.7,4.4
AUUACCCAAGUCAUCGAGUGA [Fam2.1 aminoacylation ribozyme variant],9.5,4.46,4.5,8.57,42.4,9.59
AUUACCCAGAUCAUCGAGUGA [Fam2.1 aminoacylation ribozyme variant],5,2.99,3.1,5.55,15.2,7.37
AUUACCCAGGUAAUCGAGUGA [Fam2.1 aminoacylation ribozyme variant],8.05,3.56,3.26,7.57,44.6,9.28

Sequence,self-aminoacylation [1],self-aminoacylation [2],self-aminoacylation [3],self-aminoacylation [4],self-aminoacylation [5],self-aminoacylation [6]
AUUACCCAGGUCAUCGAUUGA [Fam2.1 aminoacylation ribozyme variant],0.826,0.759,0.872,0.825,0.642,0.511
AUUACCCAGGUCAUCUAGUGA [Fam2.1 aminoacylation ribozyme variant],9.76,5.97,4.62,10.7,59.3,12.2
AUUACCCAGGUCUUCGAGUGA [Fam2.1 aminoacylation ribozyme variant],6.86,3.61,3.65,5.69,39.3,8.2
AUUACCCAGGUGAUCGAGUGA [Fam2.1 aminoacylation ribozyme variant],4.3,2.33,2.39,4.68,29.3,6.02
AUUACCCCGAUCAUCGAGUGA [Fam2.1 aminoacylation ribozyme variant],7.03,3.77,3.39,7.24,27.4,7.71
AUUACCCCGGGCAUCGAGUGA [Fam2.1 aminoacylation ribozyme variant],8.03,4.03,3.78,5.45,39.4,8.11
AUUACCCCGGUCAUCGAGUGA [Fam2.1 aminoacylation ribozyme variant],5.4,3.2,2.93,5.35,27.9,6.34
AUUACCCCGGUCAUCGAGUUA [Fam2.1 aminoacylation ribozyme variant],1.16,0.938,1.17,1.41,1.74,1.01
AUUACCCCGGUCAUCUAGUGA [Fam2.1 aminoacylation ribozyme variant],8.24,3.96,4.31,7.8,47.1,8.95
AUUACCCCGGUCAUGGAGUGA [Fam2.1 aminoacylation ribozyme variant],5.28,3.07,2.92,4.97,22.6,6.2
AUUACCCGGGACAUCGAGUGA [Fam2.1 aminoacylation ribozyme variant],11.2,5.01,4.52,10.5,80.3,12.3
AUUACCCGGGCCAUCGAGUGA [Fam2.1 aminoacylation ribozyme variant],10.1,5.47,4.18,8.49,41.7,8.23
AUUACCCGGGUCAUCCAGUGA [Fam2.1 aminoacylation ribozyme variant],4.86,3.05,3.39,4.59,28.6,5.93
AUUACCCGGGUCAUCGAGCGA [Fam2.1 aminoacylation ribozyme variant],2.22,2.18,2.08,1.97,1.09,1.55
AUUACCCGGGUCAUCGAGUGA [Fam2.1 aminoacylation ribozyme variant],7.1,3.85,3.57,6.91,44.9,7.86
AUUACCCGGGUCAUCGGGUGA [Fam2.1 aminoacylation ribozyme variant],14.7,7.9,6.62,13.9,132,12.4
AUUACCCGGGUCAUCGUGUGA [Fam2.1 aminoacylation ribozyme variant],5.65,3.17,2.6,4.88,39,5.65
AUUACCCGGGUUAUCGAGUGA [Fam2.1 aminoacylation ribozyme variant],14.4,5.94,5.68,13.3,94.5,14.6
AUUACCCGUGUCAUCGAGUGA [Fam2.1 aminoacylation ribozyme variant],8.6,4.8,4.4,8.54,38.3,10.7
AUUACCCUAGGCAUCGAGUGA [Fam2.1 aminoacylation ribozyme variant],5.37,2.68,2.47,5.3,18.1,6.47
AUUACCCUAGUCAUCGAGUGC [Fam2.1 aminoacylation ribozyme variant],1.35,1.04,1.15,1.06,1.25,0.589
AUUACCCUAGUCAUCGUGUGA [Fam2.1 aminoacylation ribozyme variant],2.17,1.29,1.25,2.4,5.35,2.89
AUUACCCUAGUCAUCUAGUGA [Fam2.1 aminoacylation ribozyme variant],6.97,3.59,3.37,7.37,27.6,10.6
AUUACCCUCCUCAUCGAGUGA [Fam2.1 aminoacylation ribozyme variant],3.99,2.08,1.81,3.98,15,4.74
AUUACCCUCGACAUCGAGUGA [Fam2.1 aminoacylation ribozyme variant],12.7,5.56,4.58,11.5,83,14.5
